In patent publication US20240002475A1:
pKd: −log10 of the molar value.

Columns and labels:
[1] = target: green fluorescent protein (GFP), recombinant (Aequorea victoria) [GFP: P42212]; test: SPR, GFP immobilised; reference LaG-16 or LaG-2 alone
[2] = target: green fluorescent protein (GFP), recombinant (Aequorea victoria) [GFP: P42212]; test: SPR, GFP immobilised
[3] = target: GFP-tagged Nup84 (budding yeast) (budding yeast) (UniProt P52891); test: time course of yeast Nup84-GFP isolation on magnetic beads

fold lower Kd than either LaG alone [1]: 20 fold
pKd [2]: 10.44
percent of maximum yield after 5 minutes [3]: 80%
percent of maximum yield after 10 minutes [3]: 90%
Substance: LaG16-LaG2 fusion with a flexible glycine-rich linker
